Data reported in patent US20220048996A1 (F STAR BETA, published 2022).
Numbering of substitutions follows the chain as printed. Each block holds one binder with its values, some of them ahead of it.

Legend:
[1] = target: T1, mouse OX40 expressed on DO11.10 cells (DO11.10-mOX40) (mouse, UniProt P47741 20-272); test: cell-based or functional assay
T1 sequence: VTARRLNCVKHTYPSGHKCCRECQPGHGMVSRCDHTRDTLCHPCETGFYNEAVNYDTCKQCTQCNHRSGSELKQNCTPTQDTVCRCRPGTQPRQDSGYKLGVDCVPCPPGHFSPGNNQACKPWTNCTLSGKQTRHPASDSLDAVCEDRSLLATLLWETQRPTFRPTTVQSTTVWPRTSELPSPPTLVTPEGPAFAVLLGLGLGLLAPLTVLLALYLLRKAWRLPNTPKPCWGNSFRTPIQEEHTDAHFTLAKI

[2] = target: T2, cynomolgus CD137 expressed on DO11.10 cells (DO11.10-cCD137) (cynomolgus monkey, UniProt Q07011 24-255 (human entry)); test: flow cytometry on DO11.10 cells expressing the target
T2 chain: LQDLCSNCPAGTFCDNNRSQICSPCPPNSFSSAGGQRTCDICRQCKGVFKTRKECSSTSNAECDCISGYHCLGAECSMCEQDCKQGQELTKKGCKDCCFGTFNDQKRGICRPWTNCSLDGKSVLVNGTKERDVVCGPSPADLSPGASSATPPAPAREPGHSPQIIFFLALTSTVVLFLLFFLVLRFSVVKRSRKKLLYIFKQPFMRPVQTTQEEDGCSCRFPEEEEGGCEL
Description: (§1) 50 μl of the antibody dilutions were added to the wells containing cells (final volume 100 μl) and incubated at 4° C. for 1 hour. […] The plates were washed and resuspended in 100 μl of PBS containing DAPI (Biotium, cat no 40043) at 1 μg/ml. The plates were analysed using a Canto II flow cytometer (BD Bioscience) and the data analysed using FlowJo. Dead cells were identified by their higher fluorescence on the UV (405 nm/450/50) channel and excluded from analysis. […] The GMFI data was fit using log (agonist) vs response (three parameters) in Graph Pad Prism Software to generate EC₅₀ values.

[3] = target: T3, human CD137 expressed on DO11.10 cells (DO11.10-hCD137) (human, UniProt Q07011 24-255); test: as above
T3 construct: also called CD137 on human T cells
Description: as §1

[4] = target: T4, mouse CD137 expressed on DO11.10 cells (DO11.10-mCD137) (mouse, UniProt P20334 24-256); test: as above
T4 construct: also called CD137 on mouse T cells
T4 sequence (P20334 24-256): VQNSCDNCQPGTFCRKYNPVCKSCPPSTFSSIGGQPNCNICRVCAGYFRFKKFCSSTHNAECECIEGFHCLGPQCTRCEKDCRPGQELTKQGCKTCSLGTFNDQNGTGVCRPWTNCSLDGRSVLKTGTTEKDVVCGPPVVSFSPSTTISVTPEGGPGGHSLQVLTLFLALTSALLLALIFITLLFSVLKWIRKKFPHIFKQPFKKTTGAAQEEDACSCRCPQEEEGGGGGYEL
Description: as §1, with “The binding affinity of the FS20m-232-91AA/Lob12.3 mAb² for cell-expressed mouse OX40 and CD137 was determined using flow cytometry. […] DO11.10-mOX40, DO11.10-mCD137, or HEK cell suspensions were prepared in PBS+2% BSA (Sigma, A7906) and seeded at 4×10⁶ cell/ml with 50 μl/well in V-bottomed 96-well plates (Costar, 3897). 50 μl” for “50 μl”, “volume 100 μl ) and incubated” for “volume 100 μl) and incubated”, “parameters) in GraphPad Prism Software” for “parameters) in Graph Pad Prism Software”

[5] = target: T1, mouse OX40 expressed on DO11.10 cells …; test: as above
Description: as §1, with “The binding affinity of the FS20m-232-91AA/Lob12.3 mAb² for cell-expressed mouse OX40 and CD137 was determined using flow cytometry. […] DO11.10-mOX40, DO11.10-mCD137, or HEK cell suspensions were prepared in PBS+2% BSA (Sigma, A7906) and seeded at 4×10⁶ cell/ml with 50 μl/well in V-bottomed 96-well plates (Costar, 3897). 50 μl” for “50 μl”, “volume 100 μl ) and incubated” for “volume 100 μl) and incubated”, “parameters) in GraphPad Prism Software” for “parameters) in Graph Pad Prism Software”

[6] = target: T5, hCD137-mFc-Avi (human); test: SPR, mAb^2 at 1 nM on CD137 against 1 µM on related receptors
T5 construct: Dimer; a biotinylated version was used where the text says so; also called human CD137-mFc-Avi; hCD137-mFc-Avi-Bio
T5 sequence (chain, as listed by the source limits assumed): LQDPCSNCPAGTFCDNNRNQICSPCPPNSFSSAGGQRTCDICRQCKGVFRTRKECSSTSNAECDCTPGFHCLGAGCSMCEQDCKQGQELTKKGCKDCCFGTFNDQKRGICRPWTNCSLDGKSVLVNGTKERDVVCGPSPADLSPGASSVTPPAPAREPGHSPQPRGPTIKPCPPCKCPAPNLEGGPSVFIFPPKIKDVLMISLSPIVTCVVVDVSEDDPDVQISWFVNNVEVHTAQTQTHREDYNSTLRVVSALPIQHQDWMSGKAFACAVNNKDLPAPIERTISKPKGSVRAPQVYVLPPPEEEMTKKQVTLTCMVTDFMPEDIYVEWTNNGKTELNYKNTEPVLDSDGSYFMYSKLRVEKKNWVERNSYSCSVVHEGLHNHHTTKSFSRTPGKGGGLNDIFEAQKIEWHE
Excerpt: CD137 and OX40 belongs to the tumour necrosis factor receptor superfamily (TNFRSF) of cytokine receptors (Moran et al., 2013).
Briefly, flow cells on CM5 chips were immobilised with approx. 1000 RU of either human CD137-mFc-Avi (Table 3), OX40-mFc (Table 2), recombinant human TNFRSF1A-Fc, recombinant human TNFRSF1B-Fc, recombinant human GITR-Fc, recombinant human NGFR-Fc, recombinant human CD40-Fc or recombinant human DR6-Fc. Flow cell 1 was left for blank immobilisation. The five mAb² were diluted to 1 μM and 1 nM in 1×HBS-EP buffer (GE Healthcare, product code BR100188), allowed to flow over the chip for 3 min and then allowed to dissociate for 4 minutes. A 30-second injection of 10 mM glycine pH 1.5 was used for regeneration. […] Binding levels were determined at the end of the association phase and compared.

[7] = target: T3, human CD137 expressed on DO11.10 cells …; test: cell-based or functional assay

mouse pan-T cell activation assay, mIL-2 release EC50, crosslinked [1]: 0.257 nM
B1: FS20m-232-91AA/4420 (antibody, human IgG1, kappa, L234A L235A)
heavy: EVKLDETGGGLVQPGRPMKLSCVASGFTFSDYWMNWVRQSPEKGLEWVAQIRNKPYNYETYYSDSVKGRFTISRDDSKSSVYLQMNNLRVEDMGIYYCTGSYYGMDYWGQGTSVTVSSASTKGPSVFPLAPSSKSTSGGTAALGCLVKDYFPEPVTVSWNSGALTSGVHTFPAVLQSSGLYSLSSVVTVPSSSLGTQTYICNVNHKPSNTKVDKKVEPKSCDKTHTCPPCPAPEAAGGPSVFLFPPKPKDTLMISRTPEVTCVVVDVSHEDPEVKFNWYVDGVEVHNAKTKPREEQYNSTYRVVSVLTVLHQDWLNGKEYKCKVSNKALPAPIEKTISKAKGQPREPQVYTLPPSRDELFDPMYYYNQVSLTCLVKGFYPSDIAVEWESNGEPLWDYKTTPPVLDSDGSFFLYSKLTVWRDRWEDGNVFSCSVMHEALHNHYTQKSLSLSPGK
light: DVVMTQTPLSLPVSLGDQASISCRSSQSLVHSNGNTYLRWYLQKPGQSPKVLIYKVSNRFSGVPDRFSGSGSGTDFTLKISRVEAEDLGVYFCSQSTHVPWTFGGGTKLEIKRTVAAPSVFIFPPSDEQLKSGTASVVCLLNNFYPREAKVQWKVDNALQSGNSQESVTEQDSKDSTYSLSSTLTLSKADYEKHKVYACEVTHQGLSSPVTKSFNRGEC

binding result [2]: no binding
binding result [3]: no binding
binding result [4]: no binding
binding result [5]: no binding
B2: G1/4420 (antibody, human IgG1, kappa)
heavy: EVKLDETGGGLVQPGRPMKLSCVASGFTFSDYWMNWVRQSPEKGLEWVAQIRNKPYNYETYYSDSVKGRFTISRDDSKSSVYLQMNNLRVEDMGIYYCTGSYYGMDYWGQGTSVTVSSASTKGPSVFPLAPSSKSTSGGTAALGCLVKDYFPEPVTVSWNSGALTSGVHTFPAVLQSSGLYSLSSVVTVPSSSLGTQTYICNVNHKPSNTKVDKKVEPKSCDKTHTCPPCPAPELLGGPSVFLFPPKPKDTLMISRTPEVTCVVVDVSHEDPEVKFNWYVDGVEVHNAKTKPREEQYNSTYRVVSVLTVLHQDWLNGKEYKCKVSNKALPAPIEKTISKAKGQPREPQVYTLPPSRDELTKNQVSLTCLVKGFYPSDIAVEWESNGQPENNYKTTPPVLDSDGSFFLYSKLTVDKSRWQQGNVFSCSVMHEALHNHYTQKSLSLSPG
light: B1 light
notes: also called anti-FITC antibody 4420 in IgG1 format; isotype control

binding result [4]: no binding
B4: FS20m-232-91AA/HEL D1.3 (antibody, V domains shown)
VH: QVQLQESGPGLVRPSQTLSLTCTVSGSTFSGYGVNWVRQPPGRGLEWIGMIWGDGNTDYNSALKSRVTMLVDTSKNQFSLRLSSVTAADTAVYYCARERDYRLDYWGQGSLVTVSS
VL: DIQMTQSPASLSASVGETVTITCRASGNIHNYLAWYQQKQGKSPQLLVYNAKTLADGVPSRFSGSGSGTQYSLKINSLQPEDFGSYYCQHFWSTPRTFGGGTKLEIKR
notes: also called OX40/HEL mock mAb^2

binding result [4]: no binding
EC50 [5]: 0.538 nM
B6: G1/OX86 (antibody, human IgG1, kappa, V domains shown)
VH: QVQLKESGPGLVQPSQTLSLTCTVSGFSLTGYNLHWVRQPPGKGLEWMGRMRYDGDIYYNSVLKSRLSISRDTSKNQVFLKMNSLQTDDTAIYYCTRDGRGDSFDYWGQGVMVTVSS
VL: DIVMTQGALPNPVPSGESASITCRSSQSLVYKDGQTYLNWFLQRPGQSPQLLTYWMSTRASGVSDRFSGSGSGTYFTLKISRVRAEDAGVYYCQQVREYPFTFGSGTKLEIKR
notes: also called G1/0X86; anti-mouse OX40 mAb OX86 in a human IgG1 backbone

Second part, the binder before the results:

B3: FS20-22-49AA/FS30-35 (bispecific antibody, V domains shown)
VH: EVQLLESGGGLVQPGGSLRLSCAASGFTFSAYNIHWVRQAPGKGLEWVSDISPYGGATNYADSVKGRFTISRDNSKNTLYLQMNSLRAEDTAVYYCARNLYELSAYSYGMDYWGQGTLVTVSS
VL: EIVLTQSPGTLSLSPGERATLSCRASQSVSSSYLAWYQQKPGQAPRLLIYGASSRATGIPDRFSGSGSGTDFTLTISRLEPEDFAVYYCQQYYYSSPITFGQGTKVEIKR
notes: Parent mAb^2; derived by reversing the stated change
specificity for CD137 over TNFRSF1A, TNFRSF1B, GITR, NGFR and CD40 (fold) [6]: ~1000 fold

B5: G1AA/OX86 (antibody, human IgG1, kappa, L234A L235A, V domains shown)
VH: B6 VH with I57T
VL: B6 VL
mouse pan-T cell activation assay, mIL-2 release EC50, crosslinked [1]: 2.41 nM

B7: G1AA/FS30-10-16 (antibody, human IgG1, kappa, L234A L235A, V domains shown)
VH: EVQLLESGGGLVQPGGSLRLSCAASGFTFSSYDMSWVRQAPGKGLEWVSDIDPTGSKTDYADSVKGRFTISRDNSKNTLYLQMNSLRAEDTAVYYCARDLLVYGFDYWGQGTLVTVSS
VL: EIVLTQSPGTLSLSPGERATLSCRASQSVSSSYLAWYQQKPGQAPRLLIYGASSRATGIPDRFSGSGSGTDFTLTISRLEPEDFAVYYCQQSYSYPVTFGQGTKVEIKR
CD8+ T cell activation assay, hIL-2 release EC50, crosslinked [7]: 3.88 nM

B8: FS20-22-49AA/FS30-10 (bispecific antibody, V domains shown)
VH: B7 VH with L101M
VL: B7 VL
notes: as for B3
specificity for CD137 over TNFRSF1A, TNFRSF1B, GITR, NGFR and CD40 (fold) [6]: ~1000 fold
